According to patent US20250099634A1, “METHOD OF TREATING CANCER” (Novartis AG, priority 2023, published 2025):
Read-outs that look alike come from different tables or passages of the source.

Columns and labels:
[1] = tested on: Grade 2 and Grade 3 advanced GEP-NET; assay: NETTER-2 best overall response, ORR and DCR, central review using RECIST 1.1; format: in vivo, human; settings: central review, Full Analysis Set
Excerpt: Objective Response Rate (ORR) will be calculated as the rate of patients with a best overall response of partial response (PR) or complete response (CR). Response duration will be calculated from the time of initial response until documented tumor progression. The Duration of Response (DOR) is defined as the time from initially meeting the criteria for response (CR or PR) until the time of progression by RECIST or death due to underlying disease. DOR will be reported descriptively for each group without comparison between groups.
Overall response rate (ORR) is defined as the proportion of subjects with best overall response (BOR) of complete response (CR) or partial response (PR), as per central review and according to RECIST 1.1.
ORR will be calculated based on the FAS and according to the ITT principle. ORR and its 95% confidence interval will be presented by treatment group. The Cochran-Mantel-Haenszel chi-square test, stratified by the randomization stratification factors, will be used to compare ORR between the two treatment groups, at the 1-sided 2.5% level of significance. As a supportive analysis, ORR as per local review will be presented by treatment group, along with 95% confidence intervals.
More precisely, it counts the presence of at least one confirmed CR or confirmed PR or SD. The DCR will be calculated based on FAS according to the ITT principle. DCR and its 95% confidence interval will be presented by treatment group. The Cochrane-Mantel-Haenszel chi-square test, stratified by the randomization stratification factors, will be used to compare DCR between the two treatment groups, at the one-sided 2.5% level of significance. The p-value to be generated using the Cochrane-Mantel-Haenszel chi-square test is considered nominal, and not to be considered confirmatory as it is not part of the testing strategy. The SAP will advise on how to proceed in case of few events in any stratum.

[2] = in vivo; cited from earlier work
[3] = All grades, randomized treatment period, Safety Set
[4] = Grade >=3, randomized treatment period, Safety Set
[5] = all grades, randomized treatment period
[6] = most frequent AEs, summary table

For C[C@@H](O)[C@H](NC(=O)[C@@H]1CSSC[C@H](NC(=O)[C@@H](Cc2ccccc2)NC(=O)CN2CCN(CC(=O)[O-])CCN(CC(=O)[O-])CCN(CC(=O)[O-])CC2)C(=O)N[C@@H](Cc2ccc(O)cc2)C(=O)N[C@H](Cc2c[nH]c3ccccc23)C(=O)N[C@@H](CCCCN)C(=O)N[C@@H]([C@@H](C)O)C(=O)N1)C(=O)O.[177Lu+3] [Lutathera, ^177Lu-DOTA^0-Tyr^3-Octreotate], the “Best Overall Response: Complete Response (CR)” value [1] was 8 (5.3) n (%), the “Best Overall Response: Non-CR/Non-PD” value [1] was 0 n (%) and the “Best Overall Response: Partial Response (PR)” value [1] was 57 (37.7) n (%). For the same molecule, the “Best Overall Response: Progressive Disease (PD)” value [1] was 8 (5.3) n (%), the “Best Overall Response: Unknown” value [1] was 6 (4.0) n (%) and the “Disease Control Rate (DCR: CR+PR+SD+Non-CR/Non-PD)” value [1] was 137 (90.7) n (%). The “Overall Response Rate (ORR: CR + PR)” value [1] was 65 (43.0) n (%), the “AEs leading to discontinuation of Any Treatment (Lutathera, Octreotide)” value [3] was 7 (4.8) n (%) and the “AEs leading to discontinuation of Lutathera” value [3] was 3 (2.0) n (%). For the same molecule, the “AEs leading to discontinuation of Octreotide” value [3] was 5 (3.4) n (%), the “AEs leading to dose interruption of Any Treatment (Lutathera, Octreotide)” value [3] was 23 (15.6) n (%) and the “AEs leading to dose interruption of Lutathera” value [3] was 14 (9.5) n (%). The “AEs leading to dose reduction of Any Treatment (Lutathera, Octreotide)” value [3] was 3 (2.0) n (%), the “AEs leading to dose reduction of Lutathera” value [3] was 2 (1.4) n (%) and the “AEs leading to dose reduction of Octreotide” value [3] was 1 (0.7) n (%). The “AEs requiring additional therapy” value [3] was 109 (74.1) n (%), the “Adverse event: Abdominal pain” value [3] was 26 (17.7) n (%) and the “Adverse event: Alanine aminotransferase increased” value [3] was 16 (10.9) n (%). For the same molecule, the “Adverse event: Alopecia” value [3] was 22 (15.0) n (%), the “Adverse event: Anaemia” value [3] was 29 (19.7) n (%) and the “Adverse event: Aspartate aminotransferase increased” value [3] was 16 (10.9) n (%). For the same molecule, the “Adverse event: Asthenia” value [3] was 28 (19.0) n (%), the “Adverse event: COVID-19” value [3] was 28 (19.0) n (%) and the “Adverse event: Constipation” value [3] was 15 (10.2) n (%). The “Adverse event: Diarrhoea” value [3] was 38 (25.9) n (%), the “Adverse event: Fatigue” value [3] was 29 (19.7) n (%) and the “Adverse event: Gamma-glutamyltransferase increased” value [3] was 12 (8.2) n (%). The “Adverse event: Headache” value [3] was 16 (10.9) n (%), the “Adverse event: Hyperglycaemia” value [3] was 20 (13.6) n (%) and the “Adverse event: Lymphocyte count decreased” value [3] was 16 (10.9) n (%). For the same molecule, the “Adverse event: Nausea” value [3] was 40 (27.2) n (%), the “Adverse event: Oedema peripheral” value [3] was 17 (11.6) n (%) and the “Adverse event: Platelet count decreased” value [3] was 25 (17.0) n (%). For the same molecule, the “Adverse event: Vomiting” value [3] was 21 (14.3) n (%), the “Adverse event: Weight increased” value [3] was 18 (12.2) n (%) and the Adverse events [3] was 136 (92.5) n (%). For the same molecule, the “Adverse events Related to Amino Acids” value [3] was 22 (15.0) n (%), the “Adverse events Related to Any Treatment” value [3] was 101 (68.7) n (%) and the “Adverse events Related to Lutathera” value [3] was 96 (65.3) n (%). The “Adverse events Related to Octreotide” value [3] was 55 (37.4) n (%), the “Adverse events: Number of subjects with at least one event” value [3] was 136 (92.5) n (%) and the “AEs leading to discontinuation of Any Treatment (Lutathera, Octreotide)” value [4] was 4 (2.7) n (%). The “AEs leading to discontinuation of Lutathera” value [4] was 1 (0.7) n (%), the “AEs leading to discontinuation of Octreotide” value [4] was 3 (2.0) n (%) and the “AEs leading to dose interruption of Any Treatment (Lutathera, Octreotide)” value [4] was 7 (4.8) n (%). For the same molecule, the “AEs leading to dose interruption of Lutathera” value [4] was 3 (2.0) n (%), the “AEs leading to dose interruption of Octreotide” value [4] was 7 (4.8) n (%) and the “AEs leading to dose reduction of Any Treatment (Lutathera, Octreotide)” value [4] was 1 (0.7) n (%). For the same molecule, the “AEs leading to dose reduction of Lutathera” value [4] was 1 (0.7) n (%), the “AEs leading to dose reduction of Octreotide” value [4] was 0 n (%) and the “AEs requiring additional therapy” value [4] was 28 (19.0) n (%). For the same molecule, the “Adverse event: Abdominal pain” value [4] was 4 (2.7) n (%), the “Adverse event: Alanine aminotransferase increased” value [4] was 1 (0.7) n (%) and the “Adverse event: Alopecia” value [4] was 0 n (%). For the same molecule, the “Adverse event: Anaemia” value [4] was 1 (0.7) n (%), the “Adverse event: Aspartate aminotransferase increased” value [4] was 1 (0.7) n (%) and the “Adverse event: Asthenia” value [4] was 1 (0.7) n (%). The “Adverse event: COVID-19” value [4] was 0 n (%), the “Adverse event: Constipation” value [4] was 1 (0.7) n (%) and the “Adverse event: Decreased appetite” value [4] was 0 n (%). For the same molecule, the “Adverse event: Diarrhoea” value [4] was 2 (1.4) n (%), the “Adverse event: Fatigue” value [4] was 0 n (%) and the “Adverse event: Gamma-glutamyltransferase increased” value [4] was 7 (4.8) n (%). The “Adverse event: Headache” value [4] was 0 n (%), the “Adverse event: Hyperglycaemia” value [4] was 0 n (%) and the “Adverse event: Lymphocyte count decreased” value [4] was 8 (5.4) n (%). The “Adverse event: Nausea” value [4] was 1 (0.7) n (%), the “Adverse event: Oedema peripheral” value [4] was 0 n (%) and the “Adverse event: Platelet count decreased” value [4] was 2 (1.4) n (%). For the same molecule, the “Adverse event: Vomiting” value [4] was 1 (0.7) n (%), the “Adverse event: Weight increased” value [4] was 2 (1.4) n (%) and the “Adverse event: White blood cell count decreased” value [4] was 3 (2.0) n (%). The Adverse events [4] was 52 (35.4) n (%), the “Adverse events Related to Amino Acids” value [4] was 1 (0.7) n (%) and the “Adverse events Related to Any Treatment” value [4] was 23 (15.6) n (%). For the same molecule, the “Adverse events Related to Lutathera” value [4] was 22 (15.0) n (%), the “Adverse events Related to Octreotide” value [4] was 2 (1.4) n (%) and the “Adverse events: Number of subjects with at least one event” value [4] was 52 (35.4) n (%). The “adverse event by preferred term: abdominal pain” value [5] was 17.7%, the “adverse event by preferred term: diarrhoea” value [5] was 25.9% and the “adverse event by preferred term: nausea” value [5] was 27.2%. The “safety findings in NETTER-2” value (consistent with established safety profile) was “No new or unexpected safety findings”, the “Incidence of AEs: Abdominal pain” value [6] was 26 (17.7) (%) and the “Incidence of AEs: Diarrhoea” value [6] was 38 (25.9) (%). For the same molecule, the “Incidence of AEs: Nausea” value [6] was 40 (27.2) (%), the “AEs leading to discontinuation of Lutathera” value (randomized treatment period) was 2.0% vs. NA and the “AEs leading to discontinuation of Lutathera and/or Octreotide” value (randomized treatment period) was 4.8%. For the same molecule, the “AEs leading to discontinuation of Octreotide” value (randomized treatment period) was 3.4%, the “Any AEs” value (randomized treatment period) was 92.5% and the “Grade 3/4 AE: GGT increased” value (randomized treatment period) was 4.8%. The “Grade 3/4 AE: Lymphocyte count decreased” value (randomized treatment period) was 5.4%, the “Grade 3/4 AE: abdominal pain” value (randomized treatment period) was 2.7% and the “Grade 3/4 AE: small intestinal obstruction” value (randomized treatment period) was 3.4%. For the same molecule, the “Grade ≥3 AEs” value (randomized treatment period) was 35.4%, the “Grade ≥3 AEs, Treatment-related” value (randomized treatment period) was 15.6% and the Clinically significant myelosuppression [2] was “less than 10%”. The “grade 3 or 4 lymphopenia” value [2] was 9%, the “grade 3 or 4 neutropenia” value [2] was 1% and the “grade 3 or 4 thrombocytopenia” value [2] was 2%. The “renal toxicities within the period of observation” value [2] was “no evidence of renal toxicities”.
